This experiment deals with DEAD-box RNA helicase DDX6 (human (endogenous in 293T)) (UniProt P26196). The experiment is described as follows: proximity ligation.
UniProt P26196, sequence (P26196 whole entry): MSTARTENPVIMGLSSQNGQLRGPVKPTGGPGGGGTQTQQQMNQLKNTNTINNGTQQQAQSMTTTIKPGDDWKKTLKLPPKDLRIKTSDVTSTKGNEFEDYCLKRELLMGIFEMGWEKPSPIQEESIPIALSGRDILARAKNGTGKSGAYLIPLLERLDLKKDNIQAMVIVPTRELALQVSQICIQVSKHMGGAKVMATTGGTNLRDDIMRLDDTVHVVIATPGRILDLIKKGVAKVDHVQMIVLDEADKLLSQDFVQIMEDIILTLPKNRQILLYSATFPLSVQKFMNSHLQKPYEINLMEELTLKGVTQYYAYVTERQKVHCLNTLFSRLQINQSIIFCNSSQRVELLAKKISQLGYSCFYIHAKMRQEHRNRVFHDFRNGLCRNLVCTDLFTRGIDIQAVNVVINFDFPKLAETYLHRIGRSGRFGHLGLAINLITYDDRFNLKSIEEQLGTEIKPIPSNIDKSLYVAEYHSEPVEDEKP

In turn, “HIV-1 Gag, wild type (expressed from LAI provirus) (natural protein)” came in with a PLA spots per cell (PLA spots per cell) of 50. With “G2A Gag (HIV-1 Gag with glycine 2 changed to alanine, expressed from LAI provirus) (natural protein)”, the PLA spots per Z stack image (PLA spots per Z stack image) came out at 56 and the PLA spots per cell (PLA spots per cell) amounted to 50.
